Experimental data as given in paper PMC2710387.

B1: Sp1 (-346) methylated (Sp1-1 M) (dsDNA)
DNA 1: TCCACCCTCCGCCCCGCGCCGTCC
DNA 2: GGACGGCGCGGGGCGGAGGGTGGA
modifications: 5-methylcytosine (printed mC): strand 1 C10,C15,C17,C20,C24; strand 2 C4,C7,C9,C14
B2: Sp1 (-346) unmethylated (Sp1-1) (dsDNA)
DNA 1: TCCACCCTCCGCCCCGCGCCGTCC
DNA 2: GGACGGCGCGGGGCGGAGGGTGGA
B3: Sp1 (-268) unmethylated (Sp1-2) (dsDNA)
DNA 1: TTCTCGTCCCCGCCCCGTCCCGCC
DNA 2: GGCGGGACGGGGCGGGGACGAGAA
B4: Sp1 (-268) methylated (Sp1-2 M) (dsDNA)
DNA 1: TTCTCGTCCCCGCCCCGTCCCGCC
DNA 2: GGCGGGACGGGGCGGGGACGAGAA
modifications: 5-methylcytosine (printed mC): strand 1 C5,C11,C16,C21,C24; strand 2 C3,C8,C13,C19

Biological target: SP1 (recombinant, purified, Promega) (UniProt P08047 2-785)
Experiment: EMSA

SP1 (recombinant, purified, Promega), sequence (P08047 2-785): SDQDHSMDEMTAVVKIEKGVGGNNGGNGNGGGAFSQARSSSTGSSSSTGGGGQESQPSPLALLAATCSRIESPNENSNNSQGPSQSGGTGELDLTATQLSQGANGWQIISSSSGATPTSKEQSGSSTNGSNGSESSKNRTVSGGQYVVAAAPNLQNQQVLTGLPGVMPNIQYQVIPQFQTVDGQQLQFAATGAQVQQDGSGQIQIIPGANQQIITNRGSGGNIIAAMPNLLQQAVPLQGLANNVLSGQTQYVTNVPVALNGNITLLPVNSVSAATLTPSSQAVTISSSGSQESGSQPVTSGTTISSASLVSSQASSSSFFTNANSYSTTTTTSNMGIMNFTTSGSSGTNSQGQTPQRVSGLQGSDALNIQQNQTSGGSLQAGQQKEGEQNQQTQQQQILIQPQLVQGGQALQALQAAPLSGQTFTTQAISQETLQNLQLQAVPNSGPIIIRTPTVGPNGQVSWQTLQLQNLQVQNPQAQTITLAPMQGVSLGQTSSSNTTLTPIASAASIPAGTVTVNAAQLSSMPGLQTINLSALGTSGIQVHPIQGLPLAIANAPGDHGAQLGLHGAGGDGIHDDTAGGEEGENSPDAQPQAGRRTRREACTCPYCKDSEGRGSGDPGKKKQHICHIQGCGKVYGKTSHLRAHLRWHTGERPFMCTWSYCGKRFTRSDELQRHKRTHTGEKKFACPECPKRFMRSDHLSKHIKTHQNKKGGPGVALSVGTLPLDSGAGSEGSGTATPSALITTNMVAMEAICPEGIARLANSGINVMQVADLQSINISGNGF

Row | Binder | binding result
1 | B1 | no binding
2 | B2 | binds
3 | B3 | binds
4 | B4 | no binding
